Assay: yeast display, Sf9 membrane polyspecificity reagent, FACS + sequencing; frameworks hold sequencing errors
Summary of the method: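 A nanobody's polyreactivity label depends on the gate it was sorted from. Yeast display cells were stained with 10% biotinylated, detergent-solubilized Sf9 membrane reagent for 1 hour at 4 °C, enriched on streptavidin microbeads and sorted by FACS. The low and high (top ~1%) gates were set on anti-HA fluorescence for expression and streptavidin fluorescence for reagent binding.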

Row | Sequence | polyreactivity (PSR sort gate)
1 | QVQLVESGGGLVQAGGSLRLSCAASGFTFVGNAMGWSRQAPGKERELVAAIRWSSGSTYYADSVKGRFTISRDNAKNTVYLQMNSLKPEDTAVYYCAADYWTGITPDAIGDYWGQGTQVTVSS | low polyreactivity
2 | QVHLVESGGGLGQAGGSLRLSGAASGFIFGDYAMGWYRQAPGKERELVADINWTGGSTYYADSVKGRFTISRDNANNTVYLQMKSLKPEDTEVYYCDKDDYAFLITWVDYWGQGTQVTVSS | low polyreactivity
3 | QVKLVESGGGLVQAGGSLRLSCPASGITFVYYAMGGYRQAPGKERELVAAISSAGSSTYYADSVKGRFTISRDNAKNTVYLQMNSLKPEDTAVYYCAATYYVPRLQWMDYWGQGTQVTVSS | low polyreactivity
4 | QVQLVESGGGLVQAGGSLRLSCAASGSTFSYYALGWYRQAPGKEREFVAAISRSGGRTYYADSVKGRFTFSRDNAKNTVYLQMNSLKPEDTAVYYCATVYYYDFSRTHPWPGDYWGQGTQVTVSS | high polyreactivity
5 | LVQLQESGGGLVQAGGSLRLSCAASGTISPGGYMGWYRQAPGKERELVASINVGGSTNYADSVKGRFTISRDNAKNTVYLQMNSLKQEDNAVYYCAVWGRNRLQLSYWGQGTQVTVSS | low polyreactivity
6 | QVQLVESGGGLVQAGGSLRLSCAASGRTFRVYAMGWYRQAPGKERELVAAITRGGSTYYADSVKGRFTISRDNAKNTVYLQMNSLKPEDTAVYYCAADVLRTQPIGWYSHSPLEYWGQGTQVTVSS | high polyreactivity
7 | QVQLVESGGGLVQAGGSLRLSCAASGRILKYYAMAWYREAPGKERELVAAIWSGGSTYYADSVKGRFTISRDNAKNTVYLLMNSLKPEDTAVYYCNAEYQWGGYGYDYWGQGTQVTVSS | low polyreactivity
8 | QVQLVESGGGLVQAGGSLRLSCAASGRTSNVYAMGWYRQAPGKERELVAAISSRDGTTYYADSVKGRFTISRDNAKNTVYLQMNSLKPEDTAVYYCAAAVLSYADYYYDYEYWGQGTQVTVSS | high polyreactivity
9 | HVQLVESGGGLVQAGGSLRLSCAASGGTFGRYARGWYRQAPGKERELVAAISSGGSTNYADSVKGRFTISRDNAKYTVYLLMNSLKPEDTAVYYCAADGPSGVRQYDYWGQGTQVTVSS | low polyreactivity
10 | QVQLVESGGGLVQAGGSLRLSCAASGRTFFGYARGWYRQAPGKEREFVARISWRGTSTTYADSVKGRFTISRDNAKNTVYLEMNSLKPEDTAVYYCAASPYGLRVYFTVGYWGQGTQVTVSS | high polyreactivity
11 | QVQLVESGGGLVQAGGSLRLSCAASGSTYAMGWYRQAPGKERELVASITSRGGSTYYADSVKGRFTISRDNANNTVYLQMNSLKPEDTAVYYCAARWYYSYICYDYWRQGTQVTVSS | high polyreactivity
12 | QVQLVESGGGLGQAGGSLRLSCAASGRIFGYYAMGGYRQAPGKARELVAGIDWSGGNTYYADSVKGRFTISRDNAKNTVYLQMNSLKPEDTAVYYCAKYKGRGDSGYDSWGQGTQVTVSS | low polyreactivity
13 | QDQLVESGGGLVQAGGSLRLSCAASGSIFPYNAMAWSRQAPGTERELVAGITYNGGSTYYADSVKGRFTISRDNAKNTVYLQMNSLKREDTAVYYCAAAGRRAFYRYDHWGQGTQVTVSS | high polyreactivity
14 | QVQLVESGGGLVQAGGSLRLSCAASGSTFVYYAMGWYRQAPGKERALVASITTSAGSTYYADSVKGRFTISRDTAKNSVYLQMNSLKPEDTAVYYCNARITITYYYWGQGTQVTVSS | high polyreactivity
15 | QVQLVESGGGLVQAGGSLRLSCAASGSTFGINAMGWYRQAPGKERELVASITRRGGSTYYADSVKGRFTISRDNAKNTVYLQMNSLKPEDTAVYYCNKTYRYGTPLYDYWGQGTQVTVSS | high polyreactivity
16 | QVQLVESGGGLVQAGGSLRLSCAASGRIFVVNTMGWYRQAPGKERELVAAISFSGVSTYYADSVKGRFTISRDNAKNTVYLQMISLKPEDTAVYYCAAVPYRQYPGGGYWGQGTQVTVSS | low polyreactivity
17 | QVQLVESGGGLVQAGGSLRLICAASGRIFGFNAMGWYRQAPGKERELVAAISGRSGRTYYADSVKGRFTISRDNAKITVYLQMNSLKPEDTAVYYCNTVGYRGPSWYDYWGQGTQVTVSS | high polyreactivity
18 | QVQLVESGGGLVQAGGSLRLSCAASGFIFSSNAMGWYRQAPGKERELVATISSDGSTNYADSVKGRFTISRDNAKNTVYLQMNSLKPEDTAVYYCAADLSLTIGTWTVLDTKYDYWGQGTQVTVSS | low polyreactivity
19 | QVQLVESRGGLVQAGGSLRLSCAASGSILVRYAMGWDRQAPGKERELVAAITGTSGGTYYADSVKGRFTISRDNAKNTVYLQMNSLKPEDTAVYYCNADGGSGAYLDLTITDYDYWGQGTQVTVSS | low polyreactivity
20 | QVQHVESGGGLVQAGGSLRLSCAASGNTFSANAMGWYRQAPVKEREFVASITWSGGSTYYADSVKGRFTFSRDNAKNTVYLQMNSLKPEDTAVYYCAAESWFKYDYWGQGTQVTVSS | low polyreactivity
21 | QVQLVESGGGVVQAGGSLRLSCAACGSTFRSYAMGWYRQAPGTERELVAAISSGGRTYYADSVKGRFTITRDNAKNPVYLPMNSLKPEDTAVYYCAARLYAYRWYGYAFKYEYWGHGTQVTVSS | high polyreactivity
22 | QVQLVESGGGLVQAGGSLRLSCAASGFTLGSYAMGWYRQAPGKDRELVARISSDGSTNYADSVKGRFTISRDNAKNTVYLQMNSLKPEDTAVYYCAADFTYYDSPYRDYNYESWGQGAQVTVSS | low polyreactivity

Row | Sequence | polyreactivity (PSR sort gate)
23 | QVQLVESGGGLVQAGGSLRLSCAASGFNFWRYAMGWYRQAPGKERELVASITSTGGSTYYADSVKGRFTISRDNAKNTVYLQMNSLKPEDTAVYYCAADTFVWADWSWHYYWGQGTQVTVSS | high polyreactivity
24 | QFQLVESGGGLVQAGSRLRLICAASGSTFKYYTMGWYRQAPGKERELVATIRGSGTTYADSVKGRFTISRDNAKNTVYLQMNSLKPEDTAVYYCARLPPADMDYWGQATQVTVSS | low polyreactivity
25 | QVQLVESGGGLVQAGGSLRLSCAASGSIFGFNAMGWYRQAPGKERELVAAINNGGSTNYADSVKGRFTISRDNAKNTVYLQMNSLKPEDTAVYYCSARLNYIRRGYWGQGTQVTVSS | high polyreactivity
26 | QVQLVESGGGLVQAGGSLRLSCAASGSIFYTYAMGWYRQAPGKERELVADISSRGGSTYYADSVKGRFTISRDNAKNTVYLQMNSLKPEDTAVYYCNAPQGFVWRYSSWGPYDYWGQGTQVTVSS | high polyreactivity
27 | QVQLVESGGGLVQAGGSLRLSCAASGRTHIYAMGWYRQAPGKERELVAGISRSGTRTYYADSVKGRFTISRDNAKNTVYLQMNSLKPEDSAVYYCNAQAYYQGYDYWGQGTQVTVSS | high polyreactivity
28 | QVQLVESGGGLVQAGGSLRLSCAASGSIFGPYSMGWYRQAPGKERELVAAISWRGGTTRYADSVKGRFTISRDNAKNTVYLQMNSLKPEDTAVYYCNRTVYSKTQYDYDYWGQGTQVTVSS | high polyreactivity
29 | QVHLVESGRGFVQAGGSLRLSCAASAFTFHSYAMGWYRQAPGKERELVASISSSGSTNYADSVKGRFTISRDNEKNTVYLQMISLKPEDTAVSYCAAESRYPFIYEYWGQVTQVTVSS | low polyreactivity
30 | QVQLVESGGGLVQAGGSLRLSCAASGSTFVANAMGWYIQAPGKERELVAAISFNRGGNTYYADSVKGRFTISRDNAKNTVYLQMNSLKPEDTAVYYCAAAQRELPTVRRNYWGQGTQVTVSS | high polyreactivity
31 | QVQLVESGGGLVQAGGSLRLSCAASGRTFRYYAMGWYRQAPGKERELVAAINRGGSTYYADSVKGRFTISRDNAKNTVYLQMNSLKPEDTAVYYCNFDKYRIVGFHSPYDYWGQGSQVTVSS | high polyreactivity
32 | QVHLVESGGGLVQAGGSLRLSCAASGSTFGVYAMGWYRQAPAKERELVAAISSSTGSTYYADSVKGRFTISRDNEKNTVYLQMNSLKPEDTAVYFCAAAGYGKVRGDYWGQGSQVTVSS | low polyreactivity
33 | QVQLVESGGGLVQAGGSLRLSCAASGRIFDRNTMGWYRQAPGKEREFVAAISGSGGRTYYADSVKGRFTISRDNAKNTVYLQMNSLKPEDTAVYYCAAYYSRQYVGYGYWGQGTQVTVSS | high polyreactivity
34 | QVQIVESGAGLVQAGGSLRLSCAPSGRIFVTNAMGWYRQSPGKERELGAAITSGGSTYYADSVKGRFTISRDNAKNNVYLQMNSLKPEDTAVFYCARPVFSQRYVTTRYDYWGQGTQVTVSS | low polyreactivity
35 | QVQVVESGGGLVQAGGSLRLSCAASGRTFTRYAMGWYRQAPGKERELVATITRGGSTNYADSVKGRFTISRDNAKNTVYLQMNSLKPEDTAVYYCAAGYFIRTRSRYRYDYWGQGTQVTVSS | high polyreactivity
36 | QVQLVESGGGLVQAGGSLRLSCAASGRTLVRYTMGWYRQAPGKERELVASISQRGGTTYYADSVKGRFTISRDNAKNTVYLQMNSLKPEDTAVYYCNKASVSGSSGGGYESWGQGTQVTVSS | low polyreactivity
37 | QVQLVESGGGLVQAGGSLRLSCAASGSILGDNAMGWYRQAPGKERELVAAISYRGGSTYADSVKGRFTISRDNAKNTVYLQMNRLKPEDTAVYYCNITDIDDSQYREYEYWGQGTQVTVSS | low polyreactivity
38 | QVQLVESGGGLDQAGGSLRLSCAASGSIFDPYAMGWYRPAPGKEREFVAVISKGGTNTYYADSVKGRFTISRDNAKNTVYLQMNSLKPEDTAGYYCAARVDTYRAKYYYWRQGTQVTVSS | high polyreactivity
39 | QVQLVESGGGLVQAGCSLRLSCAASGFIFGPNAMGWYRQAPGKERELVAAISWIGSSTYYADSVKGRFTISRDNAKNTVYLQMNSLKPQDNAVYYCAADSSERRLMDFDYWGQGTQVTVSS | low polyreactivity
40 | QVQLVESGGGLVQAGGSLRLSCAASGNTFRFYTMGWYRQAPGKERELVAAINSSGRTNYADSVKGRFTISRDNAKNTVYLQMNSLKPEDTAVYYCAATVWVYRRSRDYWGQGTQVTVSS | low polyreactivity
41 | QVQLVESGGGLVQAGGSLRLSCAASGTIFTTYAIGWYRQEPGKERELVSAISGRGSDTYYADSVKGRFTISRDNAMNTVYLQMNSLKPEDTAVYYCNARRSRAYHGRSFEYWGQGTQVTLSS | low polyreactivity
42 | QVQLVESGGGLVQAGGSLRLSCAASGSIFLSNAMGWYRQAPGKERELVAAISRRGASTYYADSVKGRFTISRDNAKNTVYLQMNSLKPEDTAVYYCAARSYSAYGYNYWGQGTQVTVSS | high polyreactivity
43 | QVQLVESGGGLVQAGGSLRLSCAASGCIGRRYAMGWYRQAPGKERELVAAITSSGGGTYYADSVKGRFTISRDNAKNTVYFQINILTPEDTAVYYCAARVYGSHFYYRTRPYDYWGQGTQVTVSS | high polyreactivity
